Test results reported in article PMC6093632 (Science Advances, 2018).

Target: the molecule itself
Experiment: cryo-EM structure

B1: full-length rat TRPV6 (natural protein, UniProt Q9R186 41-767, looked up)
chain: MGWSLPKEKGLILCLWNKFCRWFHRRESWAQSRDEQNLLQQKRIWESPLLLAAKENNVQALIKLLKFEGCEVHQKGAMGETALHIAALYDNLEAAMVLMEAAPELVFEPMTSELYEGQTALHIAVINQNVNLVRALLARGASVSARATGSVFHYRPHNLIYYGEHPLSFAACVGSEEIVRLLIEHGADIRAQDSLGNTVLHILILQPNKTFACQMYNLLLSYDGGDHLKSLELVPNNQGLTPFKLAGVEGNIVMFQHLMQKRKHIQWTYGPLTSTLYDLTEIDSSGDDQSLLELIVTTKKREARQILDQTPVKELVSLKWKRYGRPYFCVLGAIYVLYIICFTMCCVYRPLKPRITNRTNPRDNTLLQQKLLQEAYVTPKDDLRLVGELVSIVGAVIILLVEIPDIFRLGVTRFFGQTILGGPFHVIIVTYAFMVLVTMVMRLTNSDGEVVPMSFALVLGWCNVMYFARGFQMLGPFTIMIQKMIFGDLMRFCWLMAVVILGFASAFYIIFQTEDPDELGHFYDYPMALFSTFELFLTIIDGPANYDVDLPFMYSITYAAFAIIATLLMLNLLIAMMGDTHWRVAHERDELWRAQVVATTVMLERKLPRCLWPRSGICGREYGLGDRWFLRVEDRQDLNRQRIRRYAQAFQQQDDLYSEDLEKDSGEKLEMARPFGAYLSFPTPSVSRSTSRSSTNWDRLRQGALRKDLQGIINRGLEDGEGWEYQI
- stoichiometry N: 4 subunits
